According to patent publication EP1486506A1 (INSTITUT NATIONAL DE LA SANTE ET DE LA RECHERCHE MEDICALE …, dated 2004):

Biological target: T1, LexA alone (UniProt P0A7C2 1-202)
T1 construct: also called only the LexA part of the fusion protein
T1 sequence: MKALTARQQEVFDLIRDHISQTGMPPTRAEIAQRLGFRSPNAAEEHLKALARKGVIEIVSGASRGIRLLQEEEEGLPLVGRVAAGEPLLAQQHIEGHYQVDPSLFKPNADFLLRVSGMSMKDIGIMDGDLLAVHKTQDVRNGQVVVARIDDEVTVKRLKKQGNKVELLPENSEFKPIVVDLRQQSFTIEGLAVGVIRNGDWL
Test: yeast two-hybrid GFP reporter, flow cytometry (control, Fig. 2E)

B1: VP16-HIPK2/PEST (other)
chain: HVMRQQPTSTTSSRKSKQHQSSVRNVSTCEVTSSQAISSPQRSKRVKENTPPRCAMVHSSPACSTSVTCGWGDVASSTTRERQRQTIVIPDTPSPTVSVITISSDTDEEEEQKHAPTSTVSKQRKNVISCVTVHDSP
notes: range 789-925
Does B1 bind?
Result: no binding
